From PMC2583301
pKd: −log10 of the molar value.

Target: yNap1 C200A/C249A/C272A labelled with Alexa dye at Cys-414 (yNap1m*) (yeast) (UniProt P25293)
Test: other fluorescence titration

Substance: linker histone H1 (natural protein)
- pKd: 8.52
- stoichiometry N (H1 per yNap1 dimer): 2
